# Assay results reported in the RNAGym collection of RNA variant scans (doi:10.7554/elife.80360).
# B1: Hammerhead Ribozyme (parent)
# chain: ACCGGAUGUGCUUUCCGGUCUGAUGAGUCCGUGAGGACGAAACAG
# Variants of: B1
# Assay: self-cleavage, relative activity (ratio to wild type); higher = more cleavage; co-transcriptional
row,Variant,self-cleavage
1,U24G A26G,0.304
2,C11G A42C,0.422
3,A1C U9G,0.346
4,U7A A41U,0.258
5,C16U A34G,1.08
6,A23C G25A,0.331
7,G39U A44G,0.676
8,G27C G31A,0.885
9,C43U G45A,0.419
10,C43U G45U,0.423
11,G35C A44U,0.465
12,C29G C30U,0.693
13,G17A C20A,0.327
14,G4U A6C,0.282
15,A26C G36A,0.395
16,C16U U21G,0.588
17,G4A A44U,0.435
18,G39A A41U,0.293
19,C30G G35U,1.04
20,G25C C29A,0.243
21,C16U G36A,0.636
22,C11U C30G,0.714
23,U13C A40G,0.465
24,G5C G31A,0.855

row,Variant,self-cleavage
1,G5C G31U,1.02
2,G4U G10A,0.588
3,U13A C20U,0.681
4,G4U G25A,0.25
5,A6U G8U,0.489
6,C30G A44U,0.367
7,G10A C20A,0.451
8,C3A C11G,0.562
9,C16G G25A,0.357
10,U28A A37G,0.325
11,G33A G36U,0.613
12,C20G A37G,0.3
13,G8U U19G,0.369
14,A23C C43A,0.343
15,A1U G25U,0.435
16,C29A G36A,0.665
17,G4A C11U,0.389
18,U13A G27C,0.823
19,U21A A42C,0.382
20,G8A C15G,0.957
21,C15A A26G,0.248
22,A1U C15A,0.373
23,A1U C15G,0.355
24,G25C G36U,0.309

row,Variant,self-cleavage
1,G17C U32G,0.545
2,G25A U32C,0.417
3,G25A U32G,0.419
4,U12C C16G,0.652
5,G5C A41G,0.27
6,U14C G27C,0.54
7,U14A A40G,0.296
8,U32G A34U,1.19
9,A1G G27C,0.879
10,U28A G33C,1.15
11,A23G C38A,0.328
12,A26U A41U,0.29
13,G25U A34U,0.294
14,C20A A26C,0.397
15,A37G C38A,0.639
16,U28C A41C,0.29
17,A23C U28C,0.352
18,A26C G27U,0.397
19,G27C U32C,1.01
20,G27C U32G,0.705
21,U14A C16G,0.403
22,G31C G39U,0.373
23,U14G U19C,0.715
24,G22C G36A,0.317

row,Variant,self-cleavage
1,C15G G31U,0.856
2,G5C G18A,0.293
3,A6C C11U,0.592
4,G5A A23C,0.315
5,A34C G36A,0.345
6,G10A C29G,0.853
7,U21C,0.877
8,U12C A42U,0.364
9,C29G A34U,0.748
10,U19A G36C,0.367
11,C2G G18C,0.651
12,G25A G36U,0.33
13,U9C C30G,0.955
14,A6C A42G,0.329
15,C2A G33U,0.858
16,C3U U28C,0.854
17,G22U C38G,0.33
18,U21G A41G,0.29
19,U14G G45C,0.879
20,A1U C2U,0.598
21,A1U C2G,1.92
22,A34C A44C,0.341
23,U12C U13C,1.13
24,G8U U32C,0.877

row,Variant,self-cleavage
1,A23G C29A,0.319
2,U7G G25A,0.272
3,G4U A34G,0.452
4,U28G A44G,0.673
5,G8U G35U,0.616
6,A1U G31A,1.03
7,G17A C29U,0.68
8,G18A G31U,0.938
9,G8A A23C,0.396
10,G18C A37C,0.373
11,A6U A37C,0.677
12,A6U A37G,0.529
13,U32G G33U,0.838
14,U12A A44C,0.481
15,G31U G35U,1.03
16,U21C C38U,0.629
17,A23C C29U,0.337
18,G36C G39C,0.335
19,C3U C29A,0.593
20,U21G A26C,0.237
21,C3G G22C,0.292
22,U9A G10U,1.07
23,U9A G10A,1.38
24,G8A G35U,0.588

row,Variant,self-cleavage
1,G17A A26U,0.447
2,C11A C43G,0.353
3,G17A G33U,0.751
4,C15A A23C,0.307
5,U14C U21C,0.504
6,U12A G27C,0.663
7,G35A G39A,0.312
8,A1G A23C,0.96
9,C3G A40G,0.341
10,G4U U9C,0.413
11,A23C A34G,0.342
12,G18U A37C,0.567
13,G4C A42C,0.296
14,G39A A40C,0.387
15,C20A G35A,0.446
16,A40C A42G,0.314
17,G27A U28A,0.643
18,U9G C38A,0.671
19,C15A G39U,0.353
20,G17U U19G,0.257
21,U7G C11G,1.52
22,C29A G45U,0.35
23,C29U A44U,0.542
24,U32A A34U,1.04

row,Variant,self-cleavage
1,A6G G18U,0.468
2,G5A G18A,0.47
3,G5A G10A,1.54
4,U19A G31C,0.384
5,U21C G33U,0.795
6,U14G G36U,0.565
7,G5A G25A,0.327
8,G25C A42G,0.27
9,C2A A44U,0.375
10,U12G U28G,0.685
11,U19G C20U,0.306
12,G10A G39U,0.401
13,C15U A42G,0.265
14,G8U C38G,0.887
15,U24A C38A,0.696
16,G8A C29U,0.966
17,G8A C29G,0.667
18,C20U G27A,0.373
19,U19G U32A,0.366
20,G8A G31A,0.849
21,U24G A42G,0.346
22,C29U A37U,0.371
23,C20U U32C,0.395
24,G17A A23C,0.325

row,Variant,self-cleavage
1,U13A C15A,0.926
2,A6G G8U,0.844
3,A6G G8C,0.708
4,A6G G8A,1.17
5,C16G A23C,0.369
6,G33C A34C,0.801
7,U9C G25C,0.294
8,A1C A6G,0.417
9,C16U C29A,0.586
10,C16U C29G,0.69
11,G31C A37U,0.587
12,G39U A41G,0.327
13,A37G A44C,0.313
14,U14G G35A,0.725
15,G18C G35C,0.35
16,U9C A26C,0.554
17,A44G G45A,1.25
18,A26C G33C,0.559
19,C11A A26G,0.28
20,A1C A42G,0.367
21,G22C G45C,0.424
22,G8A U9C,1.33
23,U12G U21C,0.807
24,U21A C43G,0.32

row,Variant,self-cleavage
1,A23C U32A,0.466
2,G5A U7C,1.06
3,U13A C29U,0.941
4,C3A G31U,1.05
5,A1U U19A,1.1
6,G22A,0.356
7,U12A G45C,0.602
8,G31A A44U,0.861
9,U7C C43U,0.25
10,G18U U21C,0.544
11,U13A C30A,1.31
12,A1C A37G,0.348
13,G33A A44C,0.673
14,C3A U19A,0.316
15,C15G,0.877
16,U12C U24C,1.01
17,C15U G22C,0.288
18,C15U G22A,0.288
19,G10U A40U,0.338
20,G22C G27U,0.352
21,A6C C38G,0.427
22,G22C A23G,0.312
23,A1G A44U,0.968
24,G5C U24A,0.648

row,Variant,self-cleavage
1,G25C U28A,0.338
2,G4U A41G,0.263
3,G4A U12C,0.305
4,G22C G31C,0.37
5,U24C,0.959
6,C2G A42C,0.32
7,U9C A42U,0.345
8,C3A A40U,0.278
9,U19G C29U,0.316
10,G4U C11U,0.319
11,G25C A34G,0.332
12,U9A G39U,0.422
13,A23G A37G,0.314
14,C3U G5C,0.351
15,G4U C29A,0.265
16,U9G C30A,0.677
17,G5U C38U,0.498
18,A26C U28A,0.572
19,G22U G31C,0.303
20,G4U C43G,0.295
21,G39U A40U,0.307
22,C20U G39U,0.335
23,G25A C30U,0.331
24,C20G G25U,0.313

row,Variant,self-cleavage
1,G18C G22A,0.342
2,U12C A41C,0.299
3,G31U G36U,0.466
4,G33U G35U,0.914
5,C2G C29G,0.354
6,G31U C38G,0.59
7,G8U G39C,0.417
8,U13G G31U,0.82
9,U24A A44G,1.68
10,A6G U21C,0.54
11,A6G U21G,0.472
12,U7G G39U,0.365
13,C3A U21G,0.358
14,G4A C20G,0.334
15,U12C U14G,0.902
16,U13G C43G,0.335
17,G18C A41U,0.36
18,U24C G25U,0.305
19,C11G A44U,0.648
20,C11G A44C,0.769
21,A6U G18U,0.344
22,A6U G18C,0.395
23,G22A G25C,0.329
24,G22A G25U,0.376

row,Variant,self-cleavage
1,G22A G25A,0.377
2,A34U A40G,0.304
3,U14C A37G,0.945
4,C29A A37C,0.755
5,C3G U9C,0.574
6,C15U U24A,0.853
7,U9A G27U,0.585
8,A1C C11G,0.395
9,A1U A42C,0.395
10,G5U U14G,1.29
11,U21G U32G,0.549
12,C30A G33U,0.995
13,U19C C20A,0.329
14,U13A A23U,0.361
15,C2A G25U,0.323
16,C15A U19G,0.34
17,G31U C43G,0.472
18,C16G A26U,0.433
19,G18A A41C,0.328
20,U9C G10A,1.19
21,U9C G10U,0.795
22,U9G U19G,0.343
23,C38G A41C,0.298
24,G8U U13G,1.05

row,Variant,self-cleavage
1,A34U C38U,0.799
2,A6U C11G,0.827
3,G31A C43G,0.345
4,G25U A41C,0.316
5,U9C C11A,1.6
6,G22U A41G,0.311
7,G10C G35A,0.848
8,C2U G33A,1.14
9,A34G G39U,0.308
10,A34G G39A,0.288
11,U21G U28G,0.564
12,U21C U32C,0.96
13,C15A C29G,0.486
14,C2A G10U,0.88
15,C3G,0.537
16,C15G G36A,0.417
17,U12C U19G,0.371
18,G25U A40U,0.417
19,G25U A40G,0.328
20,U13C G27A,1.09
21,U24C C30U,1.14
22,G22C C38A,0.329
23,U12C G25C,0.354
24,U19A U32C,0.377

row,Variant,self-cleavage
1,G4U G45A,0.351
2,G33A G39C,0.503
3,G8U G33U,1.07
4,A23C G33C,0.479
5,U24G A41U,0.323
6,C11U G35A,0.64
7,C2U G31C,0.974
8,A1G G8A,1.57
9,U7G A41U,0.342
10,U12C U21C,0.792
11,G18A C30G,0.381
12,C15U A41G,0.355
13,G35U A44G,0.943
14,U28A A34G,0.516
15,C3G G8A,0.406
16,G4A A6U,0.377
17,A41C A42G,0.276
18,A26C G31C,0.411
19,G8A U13C,1.2
20,C16G C29G,0.496
21,A1U G45U,0.585
22,U7A A40G,0.298
